Positions count from the first letter of the chain named. Numbers in names are those of the source.
B1: wild type (WT) human βB2-crystallin (natural protein, UniProt P43320 1-205, looked up)
chain: MASDHQTQAGKPQSLNPKIIIFEQENFQGHSHELNGPCPNLKETGVEKAGSVLVQAGPWVGYEQANCKGEQFVFEKGEYPRWDSWTSSRRTDSLSSLRPIKVDSQEHKIILYENPNFTGKKMEIIDDDVPSFHAHGYQEKVSSVRVQSGTWVGYQYPGYRGLQYLLEKGDYKDSSDFGAPHPQVQSVRRIRDMQWHQRGAFHPSN
notes: Cloned BamHI/HindIII into pET28a; Oligomeric state depends on concentration (dimer at 0.2 mg/ml, dimer and tetramer at higher concentrations); also called WT βB2-crystallin; BB2; source: E. coli Rosetta (DE3), pET28a, purified (Ni-NTA, Superdex 200)
B2: A2V mutated βB2-crystallin (natural protein, human, UniProt P43320 1-205, looked up)
chain: B1 chain with A2V
notes: human βB2-crystallin with the congenital cataract-linked A2V mutation, made by site-directed mutagenesis with primers from the start codon to the stop codon; Same vector and tag as m1; also called A2V mutant; source: E. coli Rosetta (DE3), pET28a, purified (Ni-NTA, Superdex 200)
B3: βA3-crystallin (natural protein, UniProt P05813 1-215, looked up)
chain: METQAEQQELETLPTTKMAQTNPTPGSLGPWKITIYDQENFQGKRMEFTSSCPNVSERSFDNVRSLKVESGAWIGYEHTSFCGQQFILERGEYPRWDAWSGSNAYHIERLMSFRPICSANHKESKMTIFEKENFIGRQWEISDDYPSLQAMGWFNNEVGSMKIQSGAWVCYQYPGYRGYQYILECDHHGGDYKHWREWGSHAQTSQIQSIRRIQQ
notes: βA3-crystallin; also called BA3/BA1

Tests used:
[1] = molecular target: the molecule itself; assay: SEC; Superdex 200HR 10/300GL, protein concentration raised above 0.2 up to 4 mg/ml, buffer A, equilibrated 2 h at 4°C, run at 16°C; tetramer to dimers
[2] = molecular target: the molecule itself; assay: SEC; Superdex 200HR 10/300GL, protein at 0.2 mg/ml, buffer A (20 mM sodium phosphate, 100 mM NaCl, 1 mM DTT, 1 mM EDTA, pH 7.2), equilibrated 2 h at 4°C, run at 16°C; dimer
[3] = molecular target: the molecule itself; assay: SEC; βA3-crystallin alone, run beside the mixtures of Figure 5A; concentration not given

Row | Protein | stoichiometry N [1] | stoichiometry N [2] | stoichiometry N [3]
1 | B1 | 4 | 2 | 
2 | B2 | 4 | 2 | 
3 | B3 |  |  | 2
